{"source": "patent US20240294646A1", "data": [{"molecular_target": "Soluble FcγRIIb extracellular domain with C-terminal 10xHis tag (UniProt P31994)", "sequence (P31994 other isoform, or with tags, fused parts or gaps)": "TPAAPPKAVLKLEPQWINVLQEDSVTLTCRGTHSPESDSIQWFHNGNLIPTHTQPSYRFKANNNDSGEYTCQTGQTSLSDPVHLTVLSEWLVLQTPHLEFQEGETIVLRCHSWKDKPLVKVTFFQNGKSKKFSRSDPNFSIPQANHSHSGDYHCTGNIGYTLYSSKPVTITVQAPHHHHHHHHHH", "assay": "SPR; IIb/IIaR selectivity against control v27294", "units": {"IIb Selectivity Improvement wrt Control": "fold"}, "values": [{"substance": "Variant v26756, A_E272N_strat2, one-armed trastuzumab antibody", "IIb Selectivity Improvement wrt Control": 1.2}, {"substance": "Variant v26712, A_D270A_strat2, one-armed trastuzumab antibody", "IIb Selectivity Improvement wrt Control": 1}, {"substance": "Variant v26739, A_P271N_strat2, one-armed trastuzumab antibody", "IIb Selectivity Improvement wrt Control": 1.1}, {"substance": "Variant v26718, A_D270Y_strat2, one-armed trastuzumab antibody", "IIb Selectivity Improvement wrt Control": 0.9}, {"substance": "Variant v26754, A_E272S_strat2, one-armed trastuzumab antibody", "IIb Selectivity Improvement wrt Control": 1.1}, {"substance": "Variant v26738, A_P271Q_strat2, one-armed trastuzumab antibody", "IIb Selectivity Improvement wrt Control": 1.1}, {"substance": "Variant v26720, A_D270S_strat2, one-armed trastuzumab antibody", "IIb Selectivity Improvement wrt Control": 0.9}, {"substance": "Variant v26748, A_E272L_strat2, one-armed trastuzumab antibody", "IIb Selectivity Improvement wrt Control": 1.1}, {"substance": "Variant v26745, A_E272G_strat2, one-armed trastuzumab antibody", "IIb Selectivity Improvement wrt Control": 0.9}, {"substance": "Variant v26753, A_E272T_strat2, one-armed trastuzumab antibody", "IIb Selectivity Improvement wrt Control": 1.1}, {"substance": "Variant v26750, A_E272F_strat2, one-armed trastuzumab antibody", "IIb Selectivity Improvement wrt Control": 1}, {"substance": "Variant v26757, A_E272D_strat2, one-armed trastuzumab antibody", "IIb Selectivity Improvement wrt Control": 1}, {"substance": "Variant v26731, A_P271L_strat2, one-armed trastuzumab antibody", "IIb Selectivity Improvement wrt Control": 1.1}]}, {"molecular_target": "Soluble FcγRIIb extracellular domain with C-terminal 10xHis tag (UniProt P31994)", "assay": "SPR, antibody captured on HER2, receptor as analyte; affinity fold over wild-type v16463", "units": {"IIb-Fold": "fold"}, "values": [{"substance": "Variant v26732, A_P271I_strat2, one-armed trastuzumab antibody", "IIb-Fold": 56.9}, {"substance": "Variant v26728, A_P271G_strat2, one-armed trastuzumab antibody", "IIb-Fold": 65.4}, {"substance": "Variant v26756, A_E272N_strat2, one-armed trastuzumab antibody", "IIb-Fold": 57.6}, {"substance": "Variant v26712, A_D270A_strat2, one-armed trastuzumab antibody", "IIb-Fold": 49.9}, {"substance": "Variant v26739, A_P271N_strat2, one-armed trastuzumab antibody", "IIb-Fold": 50.9}, {"substance": "Variant v26718, A_D270Y_strat2, one-armed trastuzumab antibody", "IIb-Fold": 54.6}, {"substance": "Variant v26754, A_E272S_strat2, one-armed trastuzumab antibody", "IIb-Fold": 61}, {"substance": "Variant v26738, A_P271Q_strat2, one-armed trastuzumab antibody", "IIb-Fold": 56.1}, {"substance": "Variant v26720, A_D270S_strat2, one-armed trastuzumab antibody", "IIb-Fold": 49.5}, {"substance": "Variant v26748, A_E272L_strat2, one-armed trastuzumab antibody", "IIb-Fold": 81.3}, {"substance": "Variant v26745, A_E272G_strat2, one-armed trastuzumab antibody", "IIb-Fold": 51.6}, {"substance": "Variant v26753, A_E272T_strat2, one-armed trastuzumab antibody", "IIb-Fold": 62.8}, {"substance": "Variant v26750, A_E272F_strat2, one-armed trastuzumab antibody", "IIb-Fold": 61.2}, {"substance": "Variant v26757, A_E272D_strat2, one-armed trastuzumab antibody", "IIb-Fold": 66.6}, {"substance": "Variant v26731, A_P271L_strat2, one-armed trastuzumab antibody", "IIb-Fold": 66.6}]}, {"molecular_target": "Soluble FcγRIIaR extracellular domain with C-terminal 10xHis tag (UniProt P12318)", "sequence (P12318 other isoform, or with tags, fused parts or gaps)": "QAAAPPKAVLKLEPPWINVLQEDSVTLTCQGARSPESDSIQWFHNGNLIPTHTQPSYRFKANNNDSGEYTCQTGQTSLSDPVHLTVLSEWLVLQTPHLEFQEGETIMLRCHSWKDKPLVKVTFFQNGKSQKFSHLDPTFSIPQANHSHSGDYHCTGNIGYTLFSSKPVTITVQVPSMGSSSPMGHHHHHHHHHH", "assay": "SPR, antibody captured on HER2, receptor as analyte; affinity fold over wild-type v16463", "units": {"IIaR-fold": "fold"}, "values": [{"substance": "Variant v26732, A_P271I_strat2, one-armed trastuzumab antibody", "IIaR-fold": 4.4}, {"substance": "Variant v26728, A_P271G_strat2, one-armed trastuzumab antibody", "IIaR-fold": 4.8}, {"substance": "Variant v26756, A_E272N_strat2, one-armed trastuzumab antibody", "IIaR-fold": 3.6}, {"substance": "Variant v26712, A_D270A_strat2, one-armed trastuzumab antibody", "IIaR-fold": 3.8}, {"substance": "Variant v26739, A_P271N_strat2, one-armed trastuzumab antibody", "IIaR-fold": 3.4}, {"substance": "Variant v26718, A_D270Y_strat2, one-armed trastuzumab antibody", "IIaR-fold": 4.5}, {"substance": "Variant v26754, A_E272S_strat2, one-armed trastuzumab antibody", "IIaR-fold": 4.1}, {"substance": "Variant v26738, A_P271Q_strat2, one-armed trastuzumab antibody", "IIaR-fold": 4}, {"substance": "Variant v26720, A_D270S_strat2, one-armed trastuzumab antibody", "IIaR-fold": 3.9}, {"substance": "Variant v26748, A_E272L_strat2, one-armed trastuzumab antibody", "IIaR-fold": 5.3}, {"substance": "Variant v26745, A_E272G_strat2, one-armed trastuzumab antibody", "IIaR-fold": 4.5}, {"substance": "Variant v26753, A_E272T_strat2, one-armed trastuzumab antibody", "IIaR-fold": 4.3}, {"substance": "Variant v26750, A_E272F_strat2, one-armed trastuzumab antibody", "IIaR-fold": 4.5}, {"substance": "Variant v26757, A_E272D_strat2, one-armed trastuzumab antibody", "IIaR-fold": 4.9}, {"substance": "Variant v26731, A_P271L_strat2, one-armed trastuzumab antibody", "IIaR-fold": 4.5}]}, {"molecular_target": "Soluble FcγRIIb extracellular domain with C-terminal 10xHis tag (UniProt P31994)", "assay": "SPR; FcγRIIb affinity fold against control v27294", "units": {"IIb-Fold wrt Control": "fold"}, "values": [{"substance": "Variant v26732, A_P271I_strat2, one-armed trastuzumab antibody", "IIb-Fold wrt Control": 0.6}, {"substance": "Variant v26728, A_P271G_strat2, one-armed trastuzumab antibody", "IIb-Fold wrt Control": 0.7}, {"substance": "Variant v26756, A_E272N_strat2, one-armed trastuzumab antibody", "IIb-Fold wrt Control": 0.6}, {"substance": "Variant v26712, A_D270A_strat2, one-armed trastuzumab antibody", "IIb-Fold wrt Control": 0.5}, {"substance": "Variant v26739, A_P271N_strat2, one-armed trastuzumab antibody", "IIb-Fold wrt Control": 0.5}, {"substance": "Variant v26718, A_D270Y_strat2, one-armed trastuzumab antibody", "IIb-Fold wrt Control": 0.6}, {"substance": "Variant v26754, A_E272S_strat2, one-armed trastuzumab antibody", "IIb-Fold wrt Control": 0.7}, {"substance": "Variant v26738, A_P271Q_strat2, one-armed trastuzumab antibody", "IIb-Fold wrt Control": 0.6}, {"substance": "Variant v26720, A_D270S_strat2, one-armed trastuzumab antibody", "IIb-Fold wrt Control": 0.5}, {"substance": "Variant v26748, A_E272L_strat2, one-armed trastuzumab antibody", "IIb-Fold wrt Control": 0.9}, {"substance": "Variant v26745, A_E272G_strat2, one-armed trastuzumab antibody", "IIb-Fold wrt Control": 0.6}, {"substance": "Variant v26753, A_E272T_strat2, one-armed trastuzumab antibody", "IIb-Fold wrt Control": 0.7}, {"substance": "Variant v26750, A_E272F_strat2, one-armed trastuzumab antibody", "IIb-Fold wrt Control": 0.7}, {"substance": "Variant v26757, A_E272D_strat2, one-armed trastuzumab antibody", "IIb-Fold wrt Control": 0.7}, {"substance": "Variant v26731, A_P271L_strat2, one-armed trastuzumab antibody", "IIb-Fold wrt Control": 0.7}]}, {"molecular_target": "FcγRIIb (UniProt P31994)", "sequence (P31994 43-217)": "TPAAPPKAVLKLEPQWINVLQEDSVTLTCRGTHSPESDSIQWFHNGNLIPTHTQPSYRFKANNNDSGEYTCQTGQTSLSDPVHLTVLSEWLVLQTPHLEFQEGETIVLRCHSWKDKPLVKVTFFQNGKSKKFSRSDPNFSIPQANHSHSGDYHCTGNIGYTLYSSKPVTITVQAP", "assay": "SPR (Protocol 2); ratio of the fold for FcγRIIb to the fold for FcγRIIaR", "values": [{"substance": "Variant 19517 (chain A: G236D / chain B: S239D_H268D), one-armed trastuzumab antibody, Scaffold 2", "IIb/IIaR Selectivity (IIb-Fold/IIaR-Fold)": 2.6}, {"substance": "Variant 19531 (chain A: G236D / chain B: G236H_S239D_H268D), one-armed trastuzumab antibody, Scaffold 2", "IIb/IIaR Selectivity (IIb-Fold/IIaR-Fold)": 2.3}, {"substance": "Variant 19510 (chain A: G236N_G237A / chain B: S239D_H268D), one-armed trastuzumab antibody, Scaffold 2", "IIb/IIaR Selectivity (IIb-Fold/IIaR-Fold)": 3.1}, {"substance": "Variant 19524 (chain A: G236Q / chain B: G236D_S239D_H268D), one-armed trastuzumab antibody, Scaffold 2", "IIb/IIaR Selectivity (IIb-Fold/IIaR-Fold)": 1.2}]}, {"molecular_target": "Soluble FcγRIIb extracellular domain with C-terminal 10xHis tag (UniProt P31994)", "assay": "SPR; IIb-Fold / IIaR-Fold (FcγRIIb over FcγRIIaR)", "units": {"IIb Selectivity": "fold"}, "values": [{"substance": "Variant v26732, A_P271I_strat2, one-armed trastuzumab antibody", "IIb Selectivity": 12.9}, {"substance": "Variant v26728, A_P271G_strat2, one-armed trastuzumab antibody", "IIb Selectivity": 13.5}, {"substance": "Variant v26756, A_E272N_strat2, one-armed trastuzumab antibody", "IIb Selectivity": 15.8}, {"substance": "Variant v26712, A_D270A_strat2, one-armed trastuzumab antibody", "IIb Selectivity": 13}, {"substance": "Variant v26739, A_P271N_strat2, one-armed trastuzumab antibody", "IIb Selectivity": 14.9}, {"substance": "Variant v26718, A_D270Y_strat2, one-armed trastuzumab antibody", "IIb Selectivity": 12.1}, {"substance": "Variant v26754, A_E272S_strat2, one-armed trastuzumab antibody", "IIb Selectivity": 14.7}, {"substance": "Variant v26738, A_P271Q_strat2, one-armed trastuzumab antibody", "IIb Selectivity": 14.1}, {"substance": "Variant v26720, A_D270S_strat2, one-armed trastuzumab antibody", "IIb Selectivity": 12.7}, {"substance": "Variant v26748, A_E272L_strat2, one-armed trastuzumab antibody", "IIb Selectivity": 15.2}, {"substance": "Variant v26745, A_E272G_strat2, one-armed trastuzumab antibody", "IIb Selectivity": 11.6}, {"substance": "Variant v26753, A_E272T_strat2, one-armed trastuzumab antibody", "IIb Selectivity": 14.7}, {"substance": "Variant v26750, A_E272F_strat2, one-armed trastuzumab antibody", "IIb Selectivity": 13.5}, {"substance": "Variant v26757, A_E272D_strat2, one-armed trastuzumab antibody", "IIb Selectivity": 13.5}, {"substance": "Variant v26731, A_P271L_strat2, one-armed trastuzumab antibody", "IIb Selectivity": 14.7}]}, {"molecular_target": "FcγRIIb (UniProt P31994)", "assay": "SPR (Protocol 2), antibody captured on immobilised HER2, receptor as analyte", "values": [{"substance": "Variant 19517 (chain A: G236D / chain B: S239D_H268D), one-armed trastuzumab antibody, Scaffold 2", "IIb-Fold (fold change in affinity over wild-type) (fold over wild-type)": 30.5}, {"substance": "Variant 19531 (chain A: G236D / chain B: G236H_S239D_H268D), one-armed trastuzumab antibody, Scaffold 2", "IIb-Fold (fold change in affinity over wild-type) (fold over wild-type)": 3.7}, {"substance": "Variant 19510 (chain A: G236N_G237A / chain B: S239D_H268D), one-armed trastuzumab antibody, Scaffold 2", "IIb-Fold (fold change in affinity over wild-type) (fold over wild-type)": 5.5}, {"substance": "Variant 19524 (chain A: G236Q / chain B: G236D_S239D_H268D), one-armed trastuzumab antibody, Scaffold 2", "IIb-Fold (fold change in affinity over wild-type) (fold over wild-type)": 10.3}]}, {"molecular_target": "FcγRIIaR (UniProt P12318)", "sequence (P12318 34-217)": "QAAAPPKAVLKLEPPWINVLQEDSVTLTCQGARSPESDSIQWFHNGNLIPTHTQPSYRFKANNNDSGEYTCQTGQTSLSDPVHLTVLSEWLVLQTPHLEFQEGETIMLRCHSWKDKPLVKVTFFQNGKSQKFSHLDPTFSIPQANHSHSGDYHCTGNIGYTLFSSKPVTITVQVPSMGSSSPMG", "assay": "SPR (Protocol 2), antibody captured on immobilised HER2, receptor as analyte", "values": [{"substance": "Variant 19517 (chain A: G236D / chain B: S239D_H268D), one-armed trastuzumab antibody, Scaffold 2", "IIaR-Fold (fold change in affinity over wild-type) (fold over wild-type)": 11.6}, {"substance": "Variant 19531 (chain A: G236D / chain B: G236H_S239D_H268D), one-armed trastuzumab antibody, Scaffold 2", "IIaR-Fold (fold change in affinity over wild-type) (fold over wild-type)": 1.6}, {"substance": "Variant 19510 (chain A: G236N_G237A / chain B: S239D_H268D), one-armed trastuzumab antibody, Scaffold 2", "IIaR-Fold (fold change in affinity over wild-type) (fold over wild-type)": 1.8}, {"substance": "Variant 19524 (chain A: G236Q / chain B: G236D_S239D_H268D), one-armed trastuzumab antibody, Scaffold 2", "IIaR-Fold (fold change in affinity over wild-type) (fold over wild-type)": 8.9}]}]}
